Experiments:
[1] = rat, in vivo
Procedure: (§4) Blood samples were taken on the day of dosing for each rat per group at pre-dose (0 minutes), 5, 20, 40, 60, and 120 minutes post dose. […] Body weights ranged from 214-250 grams.

[2] = Mean serum insulin levels and relative bioavailability of substituted DKP/insulin powders (Example 6, FIG. 10, Table 2)
Source text: (§1) For this study, substituted diketopiperazine/insulin powders were made each containing either (E)-3-(4-(3,6-dioxopiperazin-2-yl)butylcarbamoyl)-acrylic acid (Compound 3) and insulin; or (E)-3-(3-(3,6-dioxopiperazin-2-yl)propylcarbamoyl)-acrylic acid (Compound 4) and insulin; or (E)-3-(4-(5-isopropyl-(3,6-dioxopiperazin-2-yl)butylcarbamoyl)-acrylic acid (Compound 5) and insulin, and administered to each of 3 female Sprague Dawley rats per group via pulmonary insufflation.
(§2) The rats were divided into 5 groups as follows. Group 1 rats received a formulation containing Compound 3 with an 11.4% insulin content (Formulation 3) via pulmonary insufflation. Group 2 rats were administered a formulation Compound 3 with a 25% insulin content (Formulation 3) by pulmonary insufflation. Group 3 rats received a formulation of Compound 4 with an 11.4% insulin content (Formulation 4) by pulmonary insufflation. Group 4 rats received a formulation of Compound 5 with 11.4% insulin content by pulmonary insufflation. Group 5 rats received insulin (0.5 U/kg) via subcutaneous administration.
(§3) Blood samples were taken on the day of dosing for each rat per group before (0 minutes) and 10, 20, 40, and 60 minutes after administration of the formulations, except for the insulin control group (group 5), for which an additional sample was collected at 120 minutes after dosing. At each time point, approximately 10 μL of whole blood was collected from the lateral tail vein of rats in each group and analyzed for measurements of insulin and glucose concentrations.

[3] = Mean serum insulin concentrations in rats administered DKP and insulin powders (Example 5, FIG. 8); conditions: 20 minutes post dose; 1.4 mg insulin in saline; pulmonary liquid instillation (INS)
Procedure: as §4

[4] = Mean glucose levels in rats administered various substituted DKP/insulin powders (Example 6, FIG. 9); type: in vivo, female Sprague Dawley rats; conditions: insulin 0.5 U/kg subcutaneous, pre-dose 132 mg/dL
Source text: as §1, §2, §3

[5] = serum insulin, insulin 0.5 U/kg subcutaneous

| insulin concentration [1] | Compound | serum insulin concentration ([2]; 20 minutes post dose, insulin by subcutaneous injection) | BIOAVAILABILITY ([2]; insulin 0.5 U/kg subcutaneous (reference)) | Tmax [2, 5] | T½ [2, 5] | serum insulin concentration [3] | blood glucose level ([4]; 40 minutes post dose) | blood glucose level ([4]; 1 hour post dose) | blood glucose level ([4]; 2 hours post dose) |
| --- | --- | --- | --- | --- | --- | --- | --- | --- | --- |
| 505 μU/mL | O=C(O)/C=C/C(=O)NCCCC1NC(=O)C(CCCNC(=O)/C=C/C(=O)O)NC1=O (stereo not drawn) [Compound 2, (E)-3,6-bis[(N-carboxy-2-propenyl)-amidopropyl]-2,5-diketopiperazine] |  |  |  |  |  |  |  |  |
|  | insulin | 9360 μU/mL | 100% | 20 min | 9.18 min | 6703 μU/mL | 43 mg/dL | 42 mg/dL | 34 mg/dL |

From patent publication US10172850B2, “Substituted diketopiperazine analogs for use as drug delivery agents” (MannKind Corporation, priority 2008, dated 2019)
